Experimental data: publication PMC2958304

Biological target: Fat (Ft), full-length (pAct-ft) (Drosophila) (UniProt P33450)
Assay: cell aggregation assay; S2 cells transfected with ft mixed with S2 cells transfected with ds (one set cotransfected with pMK33B fj forms, with or without CuSO4 for 16 hr); rotated 100 rpm 2 hr, immunolabelled; percent of ft-expressing cells binding to ds-expressing cells counted

Sequence of UniProt P33450 (P33450 36-5147): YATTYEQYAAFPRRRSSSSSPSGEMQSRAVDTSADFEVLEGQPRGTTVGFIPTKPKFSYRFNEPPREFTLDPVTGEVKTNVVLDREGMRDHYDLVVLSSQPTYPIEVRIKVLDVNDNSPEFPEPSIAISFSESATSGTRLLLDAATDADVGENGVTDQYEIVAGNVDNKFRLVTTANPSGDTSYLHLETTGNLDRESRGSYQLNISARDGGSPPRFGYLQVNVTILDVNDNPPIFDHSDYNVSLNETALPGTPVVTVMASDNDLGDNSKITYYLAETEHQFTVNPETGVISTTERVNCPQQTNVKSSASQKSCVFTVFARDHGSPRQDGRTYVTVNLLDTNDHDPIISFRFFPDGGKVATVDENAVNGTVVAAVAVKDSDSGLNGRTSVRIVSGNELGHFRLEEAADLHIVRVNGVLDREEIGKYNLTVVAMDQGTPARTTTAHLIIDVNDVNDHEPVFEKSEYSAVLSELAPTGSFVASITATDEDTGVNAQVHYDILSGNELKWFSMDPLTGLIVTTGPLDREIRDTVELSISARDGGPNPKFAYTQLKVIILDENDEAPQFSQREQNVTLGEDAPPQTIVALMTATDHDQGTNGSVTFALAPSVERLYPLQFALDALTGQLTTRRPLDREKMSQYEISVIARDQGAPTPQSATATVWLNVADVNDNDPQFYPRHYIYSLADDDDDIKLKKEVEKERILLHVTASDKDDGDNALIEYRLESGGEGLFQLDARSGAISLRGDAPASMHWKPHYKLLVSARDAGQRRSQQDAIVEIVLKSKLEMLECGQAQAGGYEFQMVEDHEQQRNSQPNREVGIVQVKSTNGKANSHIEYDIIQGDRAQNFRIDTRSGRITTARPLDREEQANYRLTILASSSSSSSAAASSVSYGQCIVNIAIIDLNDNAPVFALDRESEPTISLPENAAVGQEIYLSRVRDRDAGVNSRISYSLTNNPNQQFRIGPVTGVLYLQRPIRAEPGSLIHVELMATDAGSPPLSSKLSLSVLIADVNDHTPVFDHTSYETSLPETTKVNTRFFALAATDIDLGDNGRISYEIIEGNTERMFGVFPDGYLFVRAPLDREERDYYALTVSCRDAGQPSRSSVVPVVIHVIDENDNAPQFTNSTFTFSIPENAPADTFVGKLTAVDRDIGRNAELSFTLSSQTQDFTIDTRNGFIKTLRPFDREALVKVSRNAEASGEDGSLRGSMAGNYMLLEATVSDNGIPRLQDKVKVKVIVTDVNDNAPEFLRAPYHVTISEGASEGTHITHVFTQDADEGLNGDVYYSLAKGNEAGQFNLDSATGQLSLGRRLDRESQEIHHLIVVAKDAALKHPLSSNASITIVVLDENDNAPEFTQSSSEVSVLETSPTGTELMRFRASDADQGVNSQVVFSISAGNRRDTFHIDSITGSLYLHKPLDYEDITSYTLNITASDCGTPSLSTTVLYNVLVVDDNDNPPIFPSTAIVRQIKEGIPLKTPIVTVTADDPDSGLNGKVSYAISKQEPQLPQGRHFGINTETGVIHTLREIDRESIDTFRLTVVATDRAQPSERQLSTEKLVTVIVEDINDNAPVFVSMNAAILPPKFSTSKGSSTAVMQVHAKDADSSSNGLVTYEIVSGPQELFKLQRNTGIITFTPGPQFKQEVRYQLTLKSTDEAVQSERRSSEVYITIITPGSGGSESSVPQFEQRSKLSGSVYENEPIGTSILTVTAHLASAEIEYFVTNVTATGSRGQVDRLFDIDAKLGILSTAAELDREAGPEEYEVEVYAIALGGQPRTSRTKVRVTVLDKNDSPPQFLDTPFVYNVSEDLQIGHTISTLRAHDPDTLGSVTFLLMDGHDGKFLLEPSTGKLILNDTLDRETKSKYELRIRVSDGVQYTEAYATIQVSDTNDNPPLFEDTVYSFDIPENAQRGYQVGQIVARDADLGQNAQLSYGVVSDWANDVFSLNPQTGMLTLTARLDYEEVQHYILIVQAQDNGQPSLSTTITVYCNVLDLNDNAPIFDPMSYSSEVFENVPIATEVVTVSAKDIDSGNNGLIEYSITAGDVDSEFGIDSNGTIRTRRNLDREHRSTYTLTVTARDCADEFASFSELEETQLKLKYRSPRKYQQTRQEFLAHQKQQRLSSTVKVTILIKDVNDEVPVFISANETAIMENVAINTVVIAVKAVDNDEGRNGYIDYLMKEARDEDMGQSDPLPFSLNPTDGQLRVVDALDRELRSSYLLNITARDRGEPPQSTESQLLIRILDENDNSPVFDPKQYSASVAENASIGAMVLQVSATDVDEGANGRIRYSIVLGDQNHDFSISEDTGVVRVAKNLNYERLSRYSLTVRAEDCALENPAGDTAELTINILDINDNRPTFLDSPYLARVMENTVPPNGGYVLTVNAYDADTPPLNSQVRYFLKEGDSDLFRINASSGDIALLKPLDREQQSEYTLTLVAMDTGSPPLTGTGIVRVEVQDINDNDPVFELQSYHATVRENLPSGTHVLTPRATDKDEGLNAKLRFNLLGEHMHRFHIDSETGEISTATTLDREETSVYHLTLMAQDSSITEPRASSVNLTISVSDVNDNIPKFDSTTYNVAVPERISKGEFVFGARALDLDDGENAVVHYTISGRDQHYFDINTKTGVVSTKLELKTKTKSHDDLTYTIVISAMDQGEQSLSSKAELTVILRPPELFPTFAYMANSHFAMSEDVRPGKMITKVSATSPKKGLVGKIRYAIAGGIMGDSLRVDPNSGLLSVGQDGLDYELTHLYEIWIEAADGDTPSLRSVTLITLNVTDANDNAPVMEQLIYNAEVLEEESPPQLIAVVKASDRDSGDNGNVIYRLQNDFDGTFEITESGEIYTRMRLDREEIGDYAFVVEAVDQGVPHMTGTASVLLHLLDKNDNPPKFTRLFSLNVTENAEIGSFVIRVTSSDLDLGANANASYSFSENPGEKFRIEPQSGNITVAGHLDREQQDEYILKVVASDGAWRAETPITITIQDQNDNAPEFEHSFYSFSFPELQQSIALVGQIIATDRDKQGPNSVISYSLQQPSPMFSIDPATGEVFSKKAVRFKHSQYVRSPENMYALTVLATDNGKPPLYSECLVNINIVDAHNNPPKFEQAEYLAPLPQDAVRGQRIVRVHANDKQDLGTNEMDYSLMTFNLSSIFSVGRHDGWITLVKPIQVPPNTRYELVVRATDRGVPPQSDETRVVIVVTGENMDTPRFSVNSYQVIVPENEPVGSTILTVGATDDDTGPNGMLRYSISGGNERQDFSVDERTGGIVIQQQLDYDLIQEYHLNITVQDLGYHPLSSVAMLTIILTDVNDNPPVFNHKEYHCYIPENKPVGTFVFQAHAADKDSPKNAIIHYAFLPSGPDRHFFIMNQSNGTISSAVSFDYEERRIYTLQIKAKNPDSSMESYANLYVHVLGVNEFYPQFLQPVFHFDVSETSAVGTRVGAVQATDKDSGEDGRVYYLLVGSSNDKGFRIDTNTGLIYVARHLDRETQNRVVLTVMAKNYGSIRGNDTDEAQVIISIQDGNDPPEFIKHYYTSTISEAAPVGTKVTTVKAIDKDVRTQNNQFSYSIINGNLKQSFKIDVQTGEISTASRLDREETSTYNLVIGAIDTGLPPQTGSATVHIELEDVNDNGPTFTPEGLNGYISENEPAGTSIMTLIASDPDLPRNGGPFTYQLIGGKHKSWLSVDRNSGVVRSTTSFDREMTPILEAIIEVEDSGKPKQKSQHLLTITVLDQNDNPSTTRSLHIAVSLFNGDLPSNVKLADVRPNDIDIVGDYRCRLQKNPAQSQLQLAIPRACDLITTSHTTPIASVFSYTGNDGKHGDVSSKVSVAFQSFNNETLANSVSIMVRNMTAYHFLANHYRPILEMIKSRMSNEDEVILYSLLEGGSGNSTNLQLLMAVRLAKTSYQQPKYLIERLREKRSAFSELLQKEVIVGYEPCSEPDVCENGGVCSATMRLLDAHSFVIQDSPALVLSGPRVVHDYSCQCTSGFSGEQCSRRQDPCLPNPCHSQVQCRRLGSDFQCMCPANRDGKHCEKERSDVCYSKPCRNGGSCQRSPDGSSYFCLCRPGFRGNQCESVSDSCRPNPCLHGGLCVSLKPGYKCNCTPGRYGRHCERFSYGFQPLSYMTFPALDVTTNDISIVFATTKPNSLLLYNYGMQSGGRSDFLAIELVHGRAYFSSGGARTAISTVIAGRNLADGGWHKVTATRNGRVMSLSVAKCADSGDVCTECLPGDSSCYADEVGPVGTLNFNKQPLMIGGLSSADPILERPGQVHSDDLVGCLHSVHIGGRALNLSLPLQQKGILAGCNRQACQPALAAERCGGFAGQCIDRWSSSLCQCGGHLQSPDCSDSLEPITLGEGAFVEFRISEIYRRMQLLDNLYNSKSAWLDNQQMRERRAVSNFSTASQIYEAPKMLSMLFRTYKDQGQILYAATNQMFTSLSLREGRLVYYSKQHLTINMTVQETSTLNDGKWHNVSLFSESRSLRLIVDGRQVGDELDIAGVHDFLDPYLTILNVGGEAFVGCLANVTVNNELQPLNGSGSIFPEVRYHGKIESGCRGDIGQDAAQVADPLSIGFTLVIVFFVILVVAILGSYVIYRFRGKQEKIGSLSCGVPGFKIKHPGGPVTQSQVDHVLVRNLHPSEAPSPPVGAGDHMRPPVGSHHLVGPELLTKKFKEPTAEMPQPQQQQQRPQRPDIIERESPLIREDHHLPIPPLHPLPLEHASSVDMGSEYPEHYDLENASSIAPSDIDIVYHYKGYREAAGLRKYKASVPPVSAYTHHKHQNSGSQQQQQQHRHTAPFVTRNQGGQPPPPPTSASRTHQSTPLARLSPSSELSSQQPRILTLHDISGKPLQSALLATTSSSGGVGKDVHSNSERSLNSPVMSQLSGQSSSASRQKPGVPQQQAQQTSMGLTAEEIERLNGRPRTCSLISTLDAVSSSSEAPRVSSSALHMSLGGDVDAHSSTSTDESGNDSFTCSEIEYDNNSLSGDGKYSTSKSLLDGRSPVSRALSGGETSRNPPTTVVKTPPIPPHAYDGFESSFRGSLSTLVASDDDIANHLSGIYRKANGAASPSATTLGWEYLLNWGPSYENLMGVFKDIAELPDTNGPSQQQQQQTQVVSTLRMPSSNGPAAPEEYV

- reduction of binding against the same cells without Fj induction: 40%
Substance: Dachsous (Ds), untagged form, coexpressed with Fj or GNT-Fj (phosphorylated by Fj) (receptor)
